Measured values reported in the nanobody polyreactivity screen of Harvey et al. (2022).

Assay: yeast display, Sf9 membrane polyspecificity reagent, FACS + sequencing; frameworks hold sequencing errors
In short: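 After 36–48 hours of galactose induction, yeast (Saccharomyces cerevisiae BJ5465) displaying a synthetic nanobody library were stained at 4 °C for 1 hour with 10% biotinylated, detergent-solubilized Sf9 membrane reagent. Streptavidin microbeads enriched the stained cells before FACS sorting into low and high (top ~1%) gates on anti-HA and streptavidin fluorescence. Each clone's polyreactivity label reflects its gate of origin.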

Sequence | polyreactivity (PSR sort gate)
QVQLVESGGGLVQAGGSLRLSSAASGSTFWNNVMGSYRQATGKERELVAAITYSGGITYADSVKGRFTISRDNAKNTVYLEMNSLKPEDTAVYYCAADSKYKYDSWGQGTQVTVSS | low polyreactivity
QVQLVESGGGLVQAGGSLRLSCAASGITFIRNAMGWYRQAPGKERELVAAISYRGGSTYYADSVKGRFTISRDNAKNTVYLQMNSLKPEDTAVYYCAAARKLDATTYYKFDYWGQGTQVTVSS | high polyreactivity
QVQHVESGGGLVQAGGSLRLSCAASGSIISSYAMGRYRQAPGKERELVASISRRGGSTYYADSVKGRFTISRDNAKNTVSLQMNSLKPEDTAVYYCYPSCGPYRYYYCGQGTQVTVSS | low polyreactivity
QVQLVESGGGLVQAGGSLRLSCAASGSIFDVYTMGWYRPAPGKERELVAAISWSGGSTFYADSVKGRFTISRDNAKNTVYLQMNSLKPEDTAVYYCAAELSLGNYWYDFWGQGTQVTVSS | high polyreactivity
QVQLVESGGGLVQAGRSLRLSCPASGSIFIIYAMGWYRQQPGKERELVAAISASGGITYYADSVKGRFTISRDNAKNTVYLQMNRLKPEDTAVYYCAARRYRYFWVPRPYDYWGQGTQVTVSS | high polyreactivity
QVQLVESGGGLVQAGGSLRLSCAASGFTFYSNAMGWYRQAPGKERELVAAITSSGGSTYYADSVKGRFTISRDNAKNTVYLQMNSLKPEDTAVDYCNVRVGYRRYGYWGQGTQVTVSS | high polyreactivity
QVQLVESGAGLVQAGGSLRISCAASGFTFQKNAMGWYRQSPGKERELVAAISSSGGSTYYADSVKGRFTISRDNAKNTVYLQMNSMKPDDTAVYYCNAVTLANKYNDYGYWGQGTQVTVSS | high polyreactivity
QVQHVESGGGLVQAGGSLRLSCAASGSIINNYAMGWYRQPPGKERELVADSTYYADSVKGRFTISRDNAKNTVYLQMNSLKPEVTAVYYCAPDDGGGDPEFYWGQGSQVTVSS | high polyreactivity
QVQLVESGGGLVQAGGSLRLSCAASGYTFYANAMGWYRQAPGKEREFVASITWSGGSTYYADSVKGRFTISRDNAKNNVYLQMHSLKPEDTAVYYCAAESWFKYDYWGQGTQVTVSS | low polyreactivity
QVQLVESGGGLVQAGCSLRISCSASGRTFIGYAMGSYRQAPGKERELVAAICRSGGSTYYADSVKGRFTISRDNAKNTVYLQMNSLKPEDTAVYYCAKQRRDDNGGYWGQATQVTVSS | high polyreactivity
QVQLVESGGGLVQAGGSLRLSCAASGSTFEQYAMGWYRQAPGKERELVAAISGSGTRTYYADSVKGRFTISRDNAKNTVYLQMNSLKPEDTAVYYCAARFSYPAIHQAYYHWGQGTQVTVSS | high polyreactivity
QVKLVESGGGLVQAGGSLRLICAASGRISQSNAMGRYRQAPGKERELVAAISWRGGSTYYADSVMGRFTISRDNAKNTVYLQMNSLKPEDTAVYYSAVRGKYDRHYYWGQGTQVTVSS | high polyreactivity
QVHLVESGAGLVQAGGSLRLSCAASGSTFAPNAMGWYRQAPGKERELVAAISSGGDSTNYADSVKGRFTISRDNAKNTVYLQMNSLKPEDTEVYYCAHGYWFVAYDYWGEGTQVTVSS | low polyreactivity
QVQLVESGGRLVQAGGSLRLSCAASGRIFAYYAMGWYRQAPGKERELVAAISRSGVSTYYADSVKGRFTISRDNAKNTVYLQMNSLKPEDTAVYYCAARWRSGFTSGDYWGQGTQVTVSS | low polyreactivity
QVQLVESGGGLVQAGGSLRLSCAASGRTFGSYAMGCYRPAPVKEREVVAGITWRDGSTYYADSVKGRFTISRDNAKNTDYLQMNSLKPEDTAVYYCAKEAVRYYLFGMEYWGQGTQVTVSS | low polyreactivity
QVQLVESGGGLVQAGGILRLSCAASGRTFGRNAMGWYRQAQGKERELVAGISIGGGTTYYADSVKGRFTISRDNAKNTVYLQMNSLKPEDTAVYYCAARSWSYLHRYGYWGQGTLVTVSS | high polyreactivity

Sequence | polyreactivity (PSR sort gate)
QGQLVESGGCLVQAGGSLRLSCAASGIIFWSYAMGWYRQAPGKERELVAAISRRGGSTSYADSVKGRFTISRDNAKTTVYLQMNSLKPEDTAVYYCAADRYFNPKSYSTEFDYWGQGTQVTVSS | high polyreactivity
QVQLVESGGGLVQAGGSLRLSCAASGSIFVDYVMVWYRQAPGKERELVAAISGNGGRTYYADSVKGRFTISRDNAKNTVYLQMNSLKPEDTAVYYCAKVRSVTIGRDYWGQGTQVTVSS | high polyreactivity
QVQLVESGGGLVQAGGSLSLSCAASGSTFRYYTMGWYRQAPGKERELVAAISWTGGGTYYADSVKGRFTISRDNAKNTVYLQMNSLKPEDTAVYYCAASYYYELFRFDYWGQGTQVTVSS | high polyreactivity
QVQLVESGGGLVQAGGSLRLSCAASGRTCYNTMGWYRQSPGKERELVAAISRGGITNYADSVKGRFTISRDNAKNTVYLQMNSLKPADTAVYYCIAEPKRYYYYYKFDYWGQGTQVTVSS | high polyreactivity
QVQLVESGGGLVQAGGSLRLSCAASGSIFSSYAMGWYRQAPGKERELVAAISGGGNTYYADSVKGRFTISRDNAKNTVYLQMNSLKPEDTAVYYCATDTYDPFHIEDDYWGQGTQVTVSS | low polyreactivity
QVHLVESGGGLVQAGGSLRLSCPASGIIFVPNAMGWYRQAPGKEREFVAAISRSGTSTYYADSVKGRFTISRDNAKNTVYLQMNSLKPEDTAVYYCAKSAYRSYSAFGYWGQGTQVTVSS | high polyreactivity
QVQLQESGGGLVQVGGSLRLSCAASGTIFIYGFLGWNRQAPGKERELVASINLGGITNYADSVKGRFTISRDNATNTVYLQMISLKPEDTAVYYCAAYVVTGQNYGYWGQGTQVTVSS | low polyreactivity
QVQLVESGGGLVQAGGSLRLSCAASGRIFGLYAMGWYRQAPGKARELVAAISTRGGSTRYADSVKGRFTISRDTAKNTVYLQMNSLKPEDTAVYYCAKQPKPPPVTGYDYWGQGTQVTVSS | high polyreactivity
QVQLVESGGGLVQAGGSLRLSCAASGRIFLGNAMGWYRQAPWKESELVAAITNGGGSTSYADSVKGRFTISRDNAKNTVYLQMNSLKPEDTAVYYCARGYKKSVQRFEYRGQGTQVTVSS | high polyreactivity
QVQLVESGGGLVQAGGSLRLSCAASGRTFWTNAMGWYRQAPGKEREFVAAISWRGASTFYADSVKGRFTISRDNAKNTVYLQMNSLNPEDTAVYYCAAQSRTRSFYGKYDSWGQATQVTVSS | low polyreactivity
QVQLVESGGGLVQAGGSLRLSCAASGLTLAPYAMGWYRQAPGKERELVAAITFSGGSTYYADSVKGRFTISRDNAKNTVYLQMNSLKPEDTAVYYCARDTWAYKNGYPYYSWGQRTQVTVSS | low polyreactivity
QVQLVESGGGLVQAGGSLRLSCAASGRIFYYNAMGSYRQAPGKESELVAAIRRSGSRTYYADSVKGRFTISRDNSKNTVSLEMNSLKPEDTAVYYCAAKYASFAHHDSWGQGTQVTVSS | high polyreactivity
QVQLVDSGGGLVQAGGSLRLSCAASGSIFRGYAMGWYRQAPGKERELVAAIRRRAGTTYYADSVKARFTISRDNAKNTVYLQMNSLKPEDTAVYYCAVERYHSGDDYLGQGTQVTVSS | high polyreactivity
QVQLVESGGGLVQAGGSLRLSCAASGSTIFENVMGWYRQAPGKEREFVAAINTSGGSTYYADSVKGRFTISRDNAKNTVYLQMNSLKPEDTAVYYCARDSYWEMDYWGQGTQVTVSS | low polyreactivity
QVQLVESGGGLVQTGGSLRLSCAASGIIFYYYAMGWYRQAPGKERELVAAISWSGDGTYYADSVKGRFTISRDNAKNTVYLQMNSLKPEDTAVYYCAALNDGFTAYDYLDEYTDYGYWGQGTQVTVSS | low polyreactivity
QVQLVESGGGLVQAGGSLRLSCAASGITFRTNTMGWYRQAPGKERELVAAITRSGVTTYYADSVKGRFTISRDNAKNTVYLQMNSLKPEDTAVYYCAARSTKYLYGYWGQGTQVTVSS | high polyreactivity
